Earlier results on one substance are cited in article PMC6844576.

Usually Kd stands for the equilibrium constant for the complex coming apart.

The target in this data set is IL-6 receptor (Homo sapiens) (UniProt P08887). Kind of data set: 125I-rhIL-6 radioligand binding.
Chain of UniProt P08887 (P08887 20-365): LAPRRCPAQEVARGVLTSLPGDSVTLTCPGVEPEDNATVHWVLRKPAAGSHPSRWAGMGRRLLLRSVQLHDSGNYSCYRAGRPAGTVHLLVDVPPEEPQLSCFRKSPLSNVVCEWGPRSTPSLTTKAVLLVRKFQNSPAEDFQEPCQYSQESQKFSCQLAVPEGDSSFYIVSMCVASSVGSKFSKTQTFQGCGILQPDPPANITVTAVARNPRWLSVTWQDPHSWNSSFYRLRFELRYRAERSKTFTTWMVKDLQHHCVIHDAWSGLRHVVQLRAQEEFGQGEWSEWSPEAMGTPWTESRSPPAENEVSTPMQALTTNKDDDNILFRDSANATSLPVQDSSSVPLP

In the case of interleukin-6 (from UniProt P05231), the Kd is 0.44 nM.
